Consider eleven molecules from patent publication US20160024210A1 (AstraZeneca / MedImmune, published 2016).

The target of test [1] is T1, H7CR-GFP fusion protein on transfected CHO cells (Homo sapiens (Human), UniProt Q96BF3 23-282).
T1 construct: not shown: GFP part
T1 sequence: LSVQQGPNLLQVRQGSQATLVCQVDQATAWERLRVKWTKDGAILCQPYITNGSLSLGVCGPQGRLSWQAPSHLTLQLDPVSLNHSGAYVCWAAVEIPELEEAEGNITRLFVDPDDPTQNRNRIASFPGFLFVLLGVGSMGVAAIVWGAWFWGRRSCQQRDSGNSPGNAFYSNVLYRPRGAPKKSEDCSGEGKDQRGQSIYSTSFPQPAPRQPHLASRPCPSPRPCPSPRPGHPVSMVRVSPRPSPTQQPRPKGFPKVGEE
In words: flow cytometry, 5 µg/ml variant on H7CR-GFP transfected CHO cells, anti-hIg PE secondary antibody [row HC1-2, column LC1-2]. The protocol: (§1) 5 μg/ml antibodies from thirty-six variants were incubated with H7CR-GFP fusion protein transfected CHO cells for 30 min at room temperature. Cells were then washed twice with 2 ml flow cytometry buffer, and resuspended in 100 μl flow cytometry buffer. 1 μl anti-hIg PE secondary antibody (Biolegend) was added and incubated with the cells for 15 mins Samples were then washed and resuspended in 100 μl flow cytometry buffer. Flow Cytometry data was acquired using BD Canto (BD Biosciences) in plate format and analyzed by FlowJo software.
For orientation: In flow cytometry, cells or beads pass a laser one at a time.

Test [2] has as its target T2, human H7CR (B7-H7 counter-receptor) (human, UniProt Q96BF3 23-282).
T2 construct: Used for H7CR on CHO.hH7CR transfectants, human T cells and tonsil tissue; also called B7-H7CR; CD28H
T2 sequence: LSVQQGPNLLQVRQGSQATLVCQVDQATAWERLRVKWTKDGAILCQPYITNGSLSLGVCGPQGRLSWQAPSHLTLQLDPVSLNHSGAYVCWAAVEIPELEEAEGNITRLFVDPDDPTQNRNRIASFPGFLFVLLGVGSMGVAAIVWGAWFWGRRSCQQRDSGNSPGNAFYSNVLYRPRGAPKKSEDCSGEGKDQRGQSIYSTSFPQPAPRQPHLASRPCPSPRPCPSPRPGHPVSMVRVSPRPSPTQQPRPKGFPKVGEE
In words: binding to human H7CR as endogenously expressed on the surface of a cell.

The target in test [3] is T1, H7CR-GFP fusion protein on transfected …. Kind of test: flow cytometry, 5 µg/ml variant on H7CR-GFP transfected CHO cells, anti-hIg PE secondary antibody [row HC1-1, column LC1-1]. On the procedure:
as §1

Test [4] has the same target. Kind of test: flow cytometry, 5 µg/ml variant on H7CR-GFP transfected CHO cells, anti-hIg PE secondary antibody [row HC1-1, column LC2-3]. The protocol:
as §1

Test [5] shares this target. In words: flow cytometry, 5 µg/ml variant on H7CR-GFP transfected CHO cells, anti-hIg PE secondary antibody [row HC1-2, column LC1-3]. The protocol: as §1
Test [6] has the same target. In words: flow cytometry, 5 µg/ml variant on H7CR-GFP transfected CHO cells, anti-hIg PE secondary antibody [row HC1-2, column LC2-1]. On the procedure: as §1
Test [7] shares this target. In words: flow cytometry, 5 µg/ml variant on H7CR-GFP transfected CHO cells, anti-hIg PE secondary antibody [row HC1-1, column LC1-2]. On the procedure:
as §1

Test [8] has the same target. In words: flow cytometry, 5 µg/ml variant on H7CR-GFP transfected CHO cells, anti-hIg PE secondary antibody [row HC1-1, column LC1-3]. The protocol:
as §1

Test [9] shares this target. Kind of test: flow cytometry, 5 µg/ml variant on H7CR-GFP transfected CHO cells, anti-hIg PE secondary antibody [row HC1-1, column LC2-2]. The protocol:
as §1

Test [10] shares this target. In words: flow cytometry, 5 µg/ml variant on H7CR-GFP transfected CHO cells, anti-hIg PE secondary antibody [row HC1-2, column LC1-1]. On the procedure: as §1
The target is the same in test [11]. Kind of test: flow cytometry, 5 µg/ml variant on H7CR-GFP transfected CHO cells, anti-hIg PE secondary antibody [row HC1-1, column LC2-1]. The protocol:
as §1

The target in test [12] is T2, human H7CR (B7-H7 counter-receptor). In words: flow cytometry, 5 µg/ml mAb on H7CR CHO stable transfectants [C]. The protocol: 5 μg/ml H7CR 1.3, 4.5 and 7.8 mAbs was used to stain H7CR stable transfectants to show binding specificity (FIG. 4). 10 μg/ml B7-H7mIg fusion protein was also used to stain H7CR CHO transfectants. H7CR mAbs were added to the system to evaluate the blocking capability of H7CR mAbs on B7-H7-H7CR interactions (FIG. 5). Immunohistochemistry staining for H7CR on human tonsil paraffin-embedded section was performed with 4.5 antibody at a concentration of 5 μg/ml using a standard protocol (FIG. 6). For cell surface staining and analysis by flow cytometry, cells were incubated with the indicated mAb for 30 min at 4° C., washed with buffer and analyzed. Expression of H7CR on human and mouse PBMC was evaluated by lineage marker and 1.3 antibody staining (FIG. 7-11). Expression of B7-H7 on activated monocyte-derived DC was evaluated by anti-B7-H7 antibody staining (FIG. 12).

B1: 4.5 humanized variant 8 (HC1-2 / LC1-2) (antibody, V domains shown)
VH: QVQLQESGPGLVKPSQTLSLTCTVSGFSITTGGYYWNWIRQHPGKKLEWIGYIYTSGRTSYNPSLKSRVTISRDTSKNQFSLKLSSVTAADTAVYYCADMADKGGWFAYWGQGTLVTVSS
VL: DIVMTQSPDSLAVSLGERATINCKSSQSLFSSNTKRNYLNWYQQKPGQPPKLLIYHASTRLSGVPDRFSGSGSGTDFTLTISSLQAEDVADYFCQQHYETPLTFGDGTRLEIK
notes: Variable domains only; detected with anti-hIg secondary; also called VH1B / VL1B
As to B1, the binding result in [1] and in [2] was “binds” in each case.

B2: 4.5 humanized variant 1 (HC1-1 / LC1-1) (antibody, V domains shown)
VH: QVQLQESGPGLVKPSQTLSLTCTVSGFSITTGGYYWSWIRQHPGKGLEWIGYIYTSGRTYYNPSLKSRVTISVDTSKNQFSLKLSSVTAADTAVYYCADMADKGGWFAYWGQGTLVTVSS
VL: DIVMTQSPDSLAVSLGERATINCKSSQSLFSSNTKRNYLAWYQQKPGQPPKLLIYHASTRESGVPDRFSGSGSGTDFTLTISSLQAEDVAVYYCQQHYETPLTFGQGTRLEIK
notes: Variable domains only; detected with anti-hIg secondary; also called VH1A / VL1A
As to B2, the binding result in test [3] and in test [2] was “binds” in each case.

B3: 4.5 humanized variant 6 (HC1-1 / LC2-3) (antibody, V domains shown)
VH: QVQLQESGPGLVKPSQTLSLTCTVSGFSITTGGYYWSWIRQHPGKGLEWIGYIYTSGRTYYNPSLKSRVTISVDTSKNQFSLKLSSVTAADTAVYYCADMADKGGWFAYWGQGTLVTVSS
VL: DIVMTQTPSSLPVTPGEPASISCLSSQSLFSSNTKRNYLNWYLQKPGQSPKLLIYHASTRLSGVPDRFSGSGSGTDFTLKISRVEAEDVGDYFCQQHYETPLTFGDGTRLEIK
notes: Variable domains only; detected with anti-hIg secondary; also called VH1A / VL2C
With B3, the binding result in test [4] and in test [2] was “binds” throughout.

B4: 4.5 humanized variant 9 (HC1-2 / LC1-3) (antibody, V domains shown)
VH: QVQLQESGPGLVKPSQTLSLTCTVSGFSITTGGYYWNWIRQHPGKKLEWIGYIYTSGRTSYNPSLKSRVTISRDTSKNQFSLKLSSVTAADTAVYYCADMADKGGWFAYWGQGTLVTVSS
VL: DIVMTQSPDSLAVSLGERATINCLSSQSLFSSNTKRNYLNWYQQKPGQSPKLLIYHASTRLSGVPDRFSGSGSGTDFTLTISSLQAEDVADYFCQQHYETPLTFGDGTRLEIK
notes: Variable domains only; detected with anti-hIg secondary; also called VH1B / VL1C
B4: the binding result in [2] and in test [5] was “binds” in each case.

B5: 4.5 humanized variant 10 (HC1-2 / LC2-1) (antibody, V domains shown)
VH: QVQLQESGPGLVKPSQTLSLTCTVSGFSITTGGYYWNWIRQHPGKKLEWIGYIYTSGRTSYNPSLKSRVTISRDTSKNQFSLKLSSVTAADTAVYYCADMADKGGWFAYWGQGTLVTVSS
VL: DIVMTQTPLSLPVTPGEPASISCRSSQSLFSSNTKRNYLDWYLQKPGQSPQLLIYHASYRASGVPDRFSGSGSGTDFTLKISRVEAEDVGVYYCQQHYETPLTFGQGTRLEIK
notes: Variable domains only; detected with anti-hIg secondary; also called VH1B / VL2A
For the molecule B5, the binding result in test [2] and in [6] was “binds” each time.

B6: 4.5 humanized variant 2 (HC1-1 / LC1-2) (antibody, V domains shown)
VH: QVQLQESGPGLVKPSQTLSLTCTVSGFSITTGGYYWSWIRQHPGKGLEWIGYIYTSGRTYYNPSLKSRVTISVDTSKNQFSLKLSSVTAADTAVYYCADMADKGGWFAYWGQGTLVTVSS
VL: DIVMTQSPDSLAVSLGERATINCKSSQSLFSSNTKRNYLNWYQQKPGQPPKLLIYHASTRLSGVPDRFSGSGSGTDFTLTISSLQAEDVADYFCQQHYETPLTFGDGTRLEIK
notes: Variable domains only; detected with anti-hIg secondary; also called VH1A / VL1B
For the molecule B6, the binding result in [7] and in test [2] was “binds” throughout.

B7: 4.5 humanized variant 3 (HC1-1 / LC1-3) (antibody, V domains shown)
VH: QVQLQESGPGLVKPSQTLSLTCTVSGFSITTGGYYWSWIRQHPGKGLEWIGYIYTSGRTYYNPSLKSRVTISVDTSKNQFSLKLSSVTAADTAVYYCADMADKGGWFAYWGQGTLVTVSS
VL: DIVMTQSPDSLAVSLGERATINCLSSQSLFSSNTKRNYLNWYQQKPGQSPKLLIYHASTRLSGVPDRFSGSGSGTDFTLTISSLQAEDVADYFCQQHYETPLTFGDGTRLEIK
notes: Variable domains only; detected with anti-hIg secondary; also called VH1A / VL1C
As to B7, the binding result in test [8] and in test [2] was “binds” each time.

B8: 4.5 humanized variant 5 (HC1-1 / LC2-2) (antibody, V domains shown)
VH: QVQLQESGPGLVKPSQTLSLTCTVSGFSITTGGYYWSWIRQHPGKGLEWIGYIYTSGRTYYNPSLKSRVTISVDTSKNQFSLKLSSVTAADTAVYYCADMADKGGWFAYWGQGTLVTVSS
VL: DIVMTQTPLSLPVTPGEPASISCRSSQSLFSSNTKRNYLNWYLQKPGQSPKLLIYHASTRLSGVPDRFSGSGSGTDFTLKISRVEAEDVGDYFCQQHYETPLTFGDGTRLEIK
notes: Variable domains only; detected with anti-hIg secondary; also called VH1A / VL2B
Turning to B8, the binding result in test [2] and in [9] was “binds” each time.

B9: 4.5 humanized variant 7 (HC1-2 / LC1-1) (antibody, V domains shown)
VH: QVQLQESGPGLVKPSQTLSLTCTVSGFSITTGGYYWNWIRQHPGKKLEWIGYIYTSGRTSYNPSLKSRVTISRDTSKNQFSLKLSSVTAADTAVYYCADMADKGGWFAYWGQGTLVTVSS
VL: DIVMTQSPDSLAVSLGERATINCKSSQSLFSSNTKRNYLAWYQQKPGQPPKLLIYHASTRESGVPDRFSGSGSGTDFTLTISSLQAEDVAVYYCQQHYETPLTFGQGTRLEIK
notes: Variable domains only; detected with anti-hIg secondary; also called VH1B / VL1A
Consider B9, for which the binding result in [10] and in test [2] was “binds” throughout.

B10: 4.5 humanized variant 4 (HC1-1 / LC2-1) (antibody, V domains shown)
VH: QVQLQESGPGLVKPSQTLSLTCTVSGFSITTGGYYWSWIRQHPGKGLEWIGYIYTSGRTYYNPSLKSRVTISVDTSKNQFSLKLSSVTAADTAVYYCADMADKGGWFAYWGQGTLVTVSS
VL: DIVMTQTPLSLPVTPGEPASISCRSSQSLFSSNTKRNYLDWYLQKPGQSPQLLIYHASYRASGVPDRFSGSGSGTDFTLKISRVEAEDVGVYYCQQHYETPLTFGQGTRLEIK
notes: Variable domains only; detected with anti-hIg secondary; also called VH1A / VL2A
On to B10, for which the binding result in test [2] and in test [11] was “binds” each time.

B11: hamster anti-human H7CR antibody clone 7.8 (antibody, V domains shown)
VH: QIQLQESGPGLVKPSQSLSLTCSVTGFSITTGGYYWNWIRQFPGKKLEWMGYIYSSGRTSYNPSLKSRISITRDTSKNQFFLQLNSVTTEDTATYYCADMADKGGWFDYWGQGTLVTVSS
VL: DIVMTQSPSSLTVSAGEKVTISCLSSQSLFSSNTNRNYLSWYLQRPGQSPKLLIYHASTRLTGVPGRFIGSGSGTDFTLTVSTVQAGDLGDYFCQQHYVTPLTFGDGTRLEIK
notes: Hamster monoclonal antibody; also called H7CR7.8
B11: in test [12], the binding result is given as “binds”.
